In experiment [1] the target is T1, full-length untagged human GPNMB expressed on cells (human, UniProt Q14956 23-572).
T1 construct: also used here for GPNMB on human monocyte-derived macrophages in the functional assays; also called huGPNMB; Freestyle293-huGPNMB+
T1 sequence: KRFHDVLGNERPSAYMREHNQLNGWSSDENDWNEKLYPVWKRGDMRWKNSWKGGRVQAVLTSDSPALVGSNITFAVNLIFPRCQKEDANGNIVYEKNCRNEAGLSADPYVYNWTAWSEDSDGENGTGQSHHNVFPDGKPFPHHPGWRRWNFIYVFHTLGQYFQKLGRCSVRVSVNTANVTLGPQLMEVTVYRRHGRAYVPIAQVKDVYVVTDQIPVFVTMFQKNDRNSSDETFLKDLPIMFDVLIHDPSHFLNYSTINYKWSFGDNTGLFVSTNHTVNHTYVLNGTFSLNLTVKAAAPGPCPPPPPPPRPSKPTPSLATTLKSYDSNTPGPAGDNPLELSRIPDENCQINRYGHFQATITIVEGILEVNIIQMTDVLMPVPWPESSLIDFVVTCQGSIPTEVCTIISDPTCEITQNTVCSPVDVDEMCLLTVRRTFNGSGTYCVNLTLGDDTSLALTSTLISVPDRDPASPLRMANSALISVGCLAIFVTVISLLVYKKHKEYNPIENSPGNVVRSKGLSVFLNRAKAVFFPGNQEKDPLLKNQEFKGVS
The experiment in a line: FACS, FS293-huGPNMB+ cells. The procedure:
Recombinant anti-GPNMB antibodies of the present disclosure were examined for their ability to bind human and/or mouse GPNMB expressed on Freestyle293-huGPNMB+ or B16F10 cells, respectively. B16F10 cells are a murine melanoma cell line from a C57BL/6J mouse that endogenously express high levels of mouse GPNMB. The antibodies were also tested for their ability to bind to a human macrophage cell line (U937 cells) engineered to express human GPNMB. Cells were harvested, plated at 100,000 cells/well in a 96-well round bottom plate, and incubated in 100 μl FACS buffer (PBS containing 2% FBS, 2 mM EDTA) containing anti-GPNMB monoclonal antibodies of the present disclosure for 30 minutes on ice. Cells were then washed and incubated in 100 ul FACS buffer containing 1 μg/ml APC-conjugated anti-human IgG secondary antibody for 30 minutes in ice. Cells were washed twice in cold FACS buffer and acquired on a BD FACS Canto. Data analysis and calculation of MFI values was performed with FlowJo (TreeStar) software version 10.0.7.
Importantly, several anti-GPNMB antibodies of the present disclosure also bound to the human macrophage cell line U937 cells engineered to express human GPNMB (U937/huGPNMB+) (FIG. 2C). In FIG. 2C, the first data point in each pair corresponds to U937/huGPNMB+ cells, and the second data point in each pair corresponds to U937/huGPNMB− cells. No anti-GPNMB antibodies bound to U937 cells deficient in human GPNMB expression (U937/huGPNMB−).
For orientation: A flow cytometer gives signals particle by particle.

Experiment [2] addresses T2, soluble human GPNMB (recombinant extracellular domain) (human, UniProt Q14956 23-498).
T2 construct: also called huGPNMB; recombinant human GPNMB extracellular domain; not shown: C-terminal polyhistidine or Avi-His tag
T2 sequence: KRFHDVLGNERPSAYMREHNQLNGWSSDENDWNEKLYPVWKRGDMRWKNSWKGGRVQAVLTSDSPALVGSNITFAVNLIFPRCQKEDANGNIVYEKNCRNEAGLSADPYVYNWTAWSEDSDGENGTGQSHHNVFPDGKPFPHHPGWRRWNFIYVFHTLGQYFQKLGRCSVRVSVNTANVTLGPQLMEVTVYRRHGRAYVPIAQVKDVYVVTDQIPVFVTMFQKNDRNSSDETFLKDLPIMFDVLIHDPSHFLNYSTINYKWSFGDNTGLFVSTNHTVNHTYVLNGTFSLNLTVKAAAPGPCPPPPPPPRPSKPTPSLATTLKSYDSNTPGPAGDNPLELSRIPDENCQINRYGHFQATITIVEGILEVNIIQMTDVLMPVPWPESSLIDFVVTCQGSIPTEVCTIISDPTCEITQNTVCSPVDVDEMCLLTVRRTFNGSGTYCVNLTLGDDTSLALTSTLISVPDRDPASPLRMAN
As to the kind of experiment: SPR Carterra, Ab immobilized. The procedure, abridged: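 Antibodies amine-coupled on HC200M chip in a 96-spot array; recombinant GPNMB ECD analytes injected at 2.5–600 nM, lowest to highest, without regeneration. Running buffer HBS-EP+ with 0.5 mg/ml BSA; two buffer blanks between species series. Kinetics fitted to yield affinity estimates.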

B1: anti-GPNMB antibody GPN-65 (antibody, human IgG1, V domains shown)
VH: QLQLQQSGTEVVKPGASVKIPCKASGYAFSSYWMNWVKQRPGKGLEWIGQIYPGDGDTNDNGKFEGKATLTVDKSSNTAYIQLSSLTSEDSAVYFCARSPLHLRGSMDYWGQGTSVTVSS
VL: SIVMTQTPKFLLVSAGDRVTITCKASQSVSNDVAWFQQKPGQSPELLIYSASNRYTGVPDRFTGSGYGTDFTFTISTVQAEDLAVYFCQQNYYSPFTFGGGTRLEIK
notes: chimeric
B1: in experiment [1], the “MFI fold over background” value worked out at 8.1 fold. For the same molecule, in experiment [2], the Kd (in general, the free concentration of one partner at which half of the binding sites on the other are occupied at equilibrium, for simple one-to-one binding) was 0.49 nM; the koff (in general, a measure of how fast the partners let go of each other) is 0.0001 s⁻¹; the kon (as a rule, the rate constant with which the complex forms) was 210000 M⁻¹ s⁻¹.

For the origin of these results see US20250270343A1 (Alector, published 2025).
